For the data set the following is noted: Escherichia coli (strain K12); pH 8; 25 °C; Urea; CD; Na-PIPES 50 mM; reversible: yes; whole UniProt chain shown.

B1: Chemotaxis protein CheY wild type, P0AE67 (protein)
chain: MADKELKFLVVDDFSTMRRIVRNLLKELGFNNVEEAEDGVDALNKLQAGGYGFVISDWNMPNMDGLELLKTIRADGAMSALPVLMVTAEAKKENIIAAAQAGASGYVVKPFTAATLEEKLNKIFEKLGM
For B1, the denaturant m value was 1.6 kcal/mol/M, the “denaturant midpoint (higher = more stable)” value was 3.5 M and the unfolding free energy is 5.6 kcal/mol.
